Reference: publication PMC8624160

target: thrombin (UniProt P00734;P00734 328-363;364-622); assay: fluorescence attenuation kinetics (kapp); Binding buffer, salt, pH and temperature not given in the material (PBS listed among reagents); ex/em 333/426 nm, constant SITS-aptamer, thrombin titrated, trip

| Binder | Kd [nM] |
| --- | --- |
| GGTTGGTGTGGTTGG (structured_DNA, 3' (CH2)6-NH2 linker coupled to SITS) [SITS-Thrombin15 3'] | 4980 |
| GGTTGGTGTGGTTGG (structured_DNA, 5' NH2-(CH2)6 linker coupled to SITS) [SITS-Thrombin15 5'] | 10800 |
| AGTCCGTGGTAGGGCAGGTTGGGGTGACT (structured_DNA, 5' NH2-(CH2)6 linker coupled to SITS) [SITS-Thrombin29 5'] | 851 |
| AGTCCGTGGTAGGGCAGGTTGGGGTGACT (structured_DNA, 3' (CH2)6-NH2 linker coupled to SITS) [SITS-Thrombin29 3'] | 180 |
| GTCCGTGGTAGGGCAGGTTGGGGTGAC (structured_DNA, 3' (CH2)6-NH2 linker coupled to SITS) [SITS-Thrombin27 3'] | 437 |
| GTCCGTGGTAGGGCAGGTTGGGGTGAC (structured_DNA, 5' NH2-(CH2)6 linker coupled to SITS) [SITS-Thrombin27 5'] | 1590 |
